Target: PGK1 (UniProt P00558)
Experiment: GST pull-down with purified proteins
Settings: reference: WT GST-ARD1 with mTOR; sites S228

Q: “ARD1 (from UniProt P41227) GST-ARD1 S228A with mTOR” was tested. Which “binding against the reference” value did it give?
A: stronger

From article PMC5389741
